Positions count from the first letter of the chain named.
B1: motavizumab (antibody, V domains shown)
VH: QVTLRESGPALVKPTQTLTLTCTFSGFSLSTAGMSVGWIRQPPGKALEWLADIWWDDKKHYNPSLKDRLTISKDTSKNQVVLKVTNMDPADTATYYCARDMIFNFYFDVWGQGTTVTVSS
VL: DIQMTQSPSTLSASVGDRVTITCSASSRVGYMHWYQQKPGKAPKLLIYDTSKLASGVPSRFSGSGSGTEFTLTISSLQPDDFATYYCFQGSGYPFTFGGGTKVEIK
B2: palivizumab (antibody, V domains shown)
VH: B1 VH with A32S, H60D, D67S, D100S, F103T, F105W, Q112A
VL: B1 VL with S24K, A25C, S26Q, S27L, R28S, V103L
B3: AM14 (antibody, V domains shown)
VH: EVQLVESGGGVVQPGRSLRLSCAASGFSFSHYAMHWVRQAPGKGLEWVAVISYDGENTYYADSVKGRFSISRDNSKNTVSLQMNSLRPEDTALYYCARDRIVDDYYYYGMDVWGQGATVTVSS
VL: DIQMTQSPSSLSASVGDRVTITCQASQDIKKYLNWYHQKPGKVPELLMHDASNLETGVPSRFSGRGSGTDFTLTISSLQPEDIGTYYCQQYDNLPPLTFGGGTKVEIKR
B4: hRSV106 (antibody, V domains shown)
VH: QITLKESGPTLVKPTQTLTLTCTFSGFSLTTRGVGVAWIRQPPGKALEWLALIYWDDDKRYRSSPKGRLTITKDNSKNQVVLIMTNMDPVDTATYYCAHAMDDSGSYYVGLSKDPHFDSWGHGTLVTVSS
VL: SYELTQPPSVSVSPGQTASITCSGDVLFNKFASWYQQKPGQSPVLVIYQDSKRPSGIPERFSGSNSGNTATLTIRGTQAMDEADYYCQARGSTAAHVIFGGGTKVTVL
B5: hRSV61 (antibody, V domains shown)
VH: QVQLVQSGAELKKPGASVKVSCKASGYTFTNHGITWVRQAPGQGLEWMSWISGYNGNTQYAQKFQGRVTMTTDTSTRTAYMELRSLTSDDTAVYYCARDNGVVVGPPDYWGQGTLVTVSS
VL: DIQMTQSPSTLSASVGDRVTISCRASQSISSWLAWYQQKPGKPPKLLIYKASGLQTGVPSRFSGSGSGTEFTLTISSLQPDDFATYYCQYYHSLSAFGQGTKVEIK
B6: hRSV97 (antibody, V domains shown)
VH: EVQLVESGGTLVQPGRSLRLSCAASGFNFEEYAMHWVRQVPGKGLEWVARINWNGGIIGYADSVKGRFTISRDNAKKSLYLQMNSLRTDDSALYYCGKDVFWAVAGTGGPIDSWGQGTLVTVSS
VL: DIVMTQSPSSLSASIGDRVTISCRASRDISNYLAWYQQKSGKVPKLLIYAASTLESGVPSRFSGSGSGTDFTLTISSLQPEDVATYYCQNYNSAQMCSFGQGPSLEIK
B7: hRSV141 (antibody, V domains shown)
VH: QVQLVQSGAEVKKPGASVKVSCKASGYTFTNYYMHWVRQAPGQGLEWMGWINPNRGGTNYAQKFQGRVTMTLDTSISTAYIELSRLRSDDTAVYYCARDLTLGTDYWGQGTLVTVSS
VL: QAVVTQPASVFGFPGQSITISCTGTSSDVGGYNYVSWYQQRPGKAPKLMIYEVSNRPSGVSNRFSGSKSGNTASLTISGLQAEDEADYYCNSYTSSNSYVFGTGTKVTVL
B8: hRSV139 (antibody, V domains shown)
VH: QVQLVQSGAEVKKPGASVKVSCKASGYVFSNYGISWVRQAPGQGLEWMGWISAYNGNTEFAQKFQGRITMTTDTSTNTAYLEVRGLRSDDTAVYYCSRQSGVSGVPEFQDWGQGTLVTVSS
VL: QAVVTQSPLSLPVTLGQPASISCRSSQSLVYSNGDTYLSWFQQRPGQSPRRLIYKVSNRDSGVPDRFSASGSGTDFTLKISRVEAEDVGVYYCMQGTHWPPPTFGQGTRLEIK
B9: hRSV90 (antibody, V domains shown)
VH: EVQLVESGGGLVQPRRSLRLSCAASGFTFDDYTIHWVRQAPGKGLEWVSGITWNSGYIGYADSVKGRFTISRDNARNSLYLQMNSLRAEDTALYYCVRDAYVSGSDYYYYGLDVWGRGTLVTVSS
VL: EIVMTSSPATLSVSPGERATLFCRASQSVISNLAWYQQKSGQAPRLLIYGASTRATGIPARFSGSGSGTEFTLTISSLQSEDFAVYFCQQYNNWPLTFGGGTQVNVQ
notes: also called mAb hRSV90
B10: hRSV12 (antibody, V domains shown)
VH: QVQLVQSGAEVKKPGTSVRVSCKTSGYNFMNYGIYWVRQAPGQGLEWVGWISAYNGQTDRAQKFQGRVTMTTDISTNTGYMDLRSLRSDDTAVYFCARGPPVIAAVSLEYWGRGTLVTVSS
VL: EVVMTQSPLSLPVTLGQPASISCKSSQSLVHSNGDTYLNWFQQRPGQSPRRLIYKVSNRDSGVPDRFSGSGSGTDFTLKISRVETEDVGVYYCMQATHWPGSFGQGTKLEIK
B11: hRSV75 (antibody, V domains shown)
VH: EVQLVESGGGLVKPGGSLRLSCAASGFTFRSYSMNWVRQAPGKGLEWVSSITSSSSYIDYADSVKGRFTISRDNAKNSLYLQMNSLRAEDTAVYYCARAYCGGDCSVDHFQHWGQGTLVTVSS
VL: QSVLTQPPSVSGAPGQRVTISCTGSSSNIGAGYDVHWYQHLPGTAPKLLIYVNSNRPSGVPDRFSASKSGTSASLAITGLQAEDEADYYCQSYDKSLSGFYVFGTGTKVTVL
B12: hRSV7 (antibody, V domains shown)
VH: EVQLVESGGGLVQPGGSLRLSCAASGFTFRNYAMSWVRQAPGKGLEWVSDISSGGDTTYYAESLKGRITISRDNSKNTLYLQMNSLRAEDAAIYFCAKHLLSPMYVNTDVFPDWYFEIWGRGTLVTVSS
VL: SYELTQPPSVSVSPGQTARITCSGDGLPKKYAYWYQQKSGQAPVLVIYDDSKRPSGIPERFSGTSSGTMATLIISGAQVEDEADYYCYSRHNSAYQRVFGAGTQLTVL
B13: D25 (antibody, V domains shown)
VH: QVQLVQSGAEVKKPGSSVMVSCQASGGPLRNYIINWLRQAPGQGPEWMGGIIPVLGTVHYAPKFQGRVTITADESTDTAYIHLISLRSEDTAMYYCATETALVVSTTYLPHYFDNWGQGTLVTVSS
VL: DIQMTQSPSSLSAAVGDRVTITCQASQDIVNYLNWYQQKPGKAPKLLIYVASNLETGVPSRFSGSGSGTDFSLTISSLQPEDVATYYCQQYDNLPLTFGGGTKVEIKR
B14: hRSV20 (antibody, V domains shown)
VH: QVQLVESGGGLVQPGRSLRLSCAASGFTFDDYAMHWVRQAPGRGLEWVSGISWNSGIAVYADSVKGRFTISRDNAKKSLYLQINSLRAEDTALYYCVKDNYASGSYSSYYYYYGLDLWGQGTLVTVSS
VL: EIVMTQSPATLSVSPGERATLSCRASQSIISNLAWYQQKPGQAPRLLIYGVSTRATGIPARFSGSGSDTEFTLSISSLQSEDFAVYYCQQYNNWPITFGQGTRLEIK

These binders were tested against RSV strain A2 pre-fusion F protein (SC-TM) (human respiratory syncytial virus …, UniProt P03420 26-513) (assay: ELISA, F protein coated).

Row | Binder | EC50 [µg/mL]
1 | B1 | 0.017

The binders below were run against T1, RSV strain 18537 post-fusion F (human respiratory syncytial virus …, UniProt P13843 26-109; P13843 137-524) (assay: ELISA, F protein coated).
T1 construct: extracellular domain; also called RSV B 18537 (post)

Row | Binder | EC50 [µg/mL]
2 | B1 | 0.084
3 | B2 | 0.081
4 | B3 | 0.198

Each binder was assayed against T2, RSV strain A2 pre-fusion F protein (SC-TM) (human respiratory syncytial virus …, UniProt P03420 26-513) (assay: ELISA, F protein coated).
T2 construct: not shown: fold-on trimerization domain and polyhistidine tag

Row | Binder | EC50 [µg/mL]
5 | B4 | 0.046
6 | B5 | 0.027
7 | B6 | 0.053
8 | B7 | 0.029
9 | B8 | 0.04
10 | B9 | 0.028
11 | B10 | 0.028
12 | B11 | 0.044

Each binder was assayed against T3, RSV strain A2 post-fusion F (human respiratory syncytial virus …, UniProt P03420 26-109; P03420 137-524) (assay: ELISA, F protein coated).
T3 construct: extracellular domain

Row | Binder | EC50 [µg/mL]
13 | B1 | 0.083
14 | B2 | 0.024
15 | B10 | 0.285

The binders below were run against F protein of RSV strain Long (infectious virus) (human respiratory syncytial virus …, UniProt P12568 26-574) (assay: cell-based or functional assay).

Row | Binder | Neutralization IC50, plaque-reduction assay [µg/mL]
16 | B4 | 0.043
17 | B5 | 0.054
18 | B6 | 0.106
19 | B7 | 0.028
20 | B12 | 0.062
21 | B13 | 0.009
22 | B8 | 0.07
23 | B1 | 0.009
24 | B2 | 0.212
25 | B3 | 0.043
26 | B9 | 0.035
27 | B14 | 0.014
28 | B10 | 0.016
29 | B11 | 0.019

These binders were tested against F protein of RSV strain A2 (infectious virus) (human respiratory syncytial virus …, UniProt P03420 26-574) (assay: cell-based or functional assay).

Row | Binder | Neutralization IC50, plaque-reduction assay [µg/mL]
30 | B4 | 0.451
31 | B5 | 0.276
32 | B6 | 2.23
33 | B7 | 0.626
34 | B12 | 1.33
35 | B8 | 0.621
36 | B9 | 0.015
37 | B14 | 0.034
38 | B10 | 0.141
39 | B11 | 0.129

The binders below were run against F protein of RSV strain 18537 B (infectious virus) (human respiratory syncytial virus …, UniProt P13843 26-574) (assay: cell-based or functional assay).

Row | Binder | Neutralization IC50, plaque-reduction assay [µg/mL]
40 | B4 | 0.114
41 | B5 | 0.09
42 | B6 | 0.065
43 | B7 | 0.053
44 | B12 | 0.022
45 | B13 | > 1
46 | B8 | 0.216
47 | B1 | 0.091
48 | B2 | 1.27
49 | B9 | 0.045
50 | B14 | 0.114
51 | B10 | 0.443
52 | B11 | 0.062

Target: F protein of RSV strain A2 (infectious virus) (human respiratory syncytial virus …, UniProt P03420 26-574)
Experiment: cell-based or functional assay
Remark: another data set of the same source

Row | Binder | Neutralization IC50, plaque-reduction assay [µg/mL]
53 | B1 | 0.123
54 | B2 | 11

Source: patent publication US20190367586A1 (VANDERBILT UNIVERSITY, published 2019)
